Measured values as given in patent publication US9657062B2, “Ghrelin analogues” (Zealand Pharma A/S, priority 2012, dated 2017).
*1 amine or outer side, *2 acyl side, *3 side chain or, on linkers, in order; H or OH if unused. [ ]: non-standard residue; d: D form. The star is where a group is joined. Achc(cis-1,4) = O=C([C@H]1CC[C@@H](N[*:1])CC1)[*:2]; Achc(trans-4) = O=C([C@H]1CC[C@H](N[*:1])CC1)[*:2]; Palmitoyl = CCCCCCCCCCCCCCCC(=O)*; 3Amb = NCc1cccc(C(=O)O)c1; Octanoyl = CCCCCCCC(=O)*; Aib = CC(C)(N)C(=O)O; Inp = O=C(O)C1CCNCC1; Octyl = CCCCCCCC*

B1: H-PS-S(O-octyl)-FLSPEHQRVQQRKES-K(hexadecanoyl)-KPPAKLQPR-OH (peptide)
peptide: H-PSS(Octyl)FLSPEHQRVQQRKESK(Palmitoyl)KPPAKLQPR-OH
SMILES: CCCCCCCCCCCCCCCC(=O)NCCCC[C@H](NC(=O)[C@H](CO)NC(=O)[C@H](CCC(=O)O)NC(=O)[C@H](CCCCN)NC(=O)[C@H](CCCNC(=N)N)NC(=O)[C@H](CCC(N)=O)NC(=O)[C@H](CCC(N)=O)NC(=O)[C@@H](NC(=O)[C@H](CCCNC(=N)N)NC(=O)[C@H](CCC(N)=O)NC(=O)[C@H](Cc1c[nH]cn1)NC(=O)[C@H](CCC(=O)O)NC(=O)[C@@H]1CCCN1C(=O)[C@H](CO)NC(=O)[C@H](CC(C)C)NC(=O)[C@H](Cc1ccccc1)NC(=O)[C@H](COCCCCCCCC)NC(=O)[C@H](CO)NC(=O)[C@@H]1CCCN1)C(C)C)C(=O)N[C@@H](CCCCN)C(=O)N1CCC[C@H]1C(=O)N1CCC[C@H]1C(=O)N[C@@H](C)C(=O)N[C@@H](CCCCN)C(=O)N[C@@H](CC(C)C)C(=O)N[C@@H](CCC(N)=O)C(=O)N1CCC[C@H]1C(=O)N[C@@H](CCCNC(=N)N)C(=O)O
B2: H-Mamb-S(O-octanoyl)-FLSPEHQRVQQRKESKKPPAKLQPR-OH (peptide)
peptide: H-[3Amb]S(Octanoyl)FLSPEHQRVQQRKESKKPPAKLQPR-OH
SMILES: CCCCCCCC(=O)OC[C@H](NC(=O)c1cccc(CN)c1)C(=O)N[C@@H](Cc1ccccc1)C(=O)N[C@@H](CC(C)C)C(=O)N[C@@H](CO)C(=O)N1CCC[C@H]1C(=O)N[C@@H](CCC(=O)O)C(=O)N[C@@H](Cc1c[nH]cn1)C(=O)N[C@@H](CCC(N)=O)C(=O)N[C@@H](CCCNC(=N)N)C(=O)N[C@H](C(=O)N[C@@H](CCC(N)=O)C(=O)N[C@@H](CCC(N)=O)C(=O)N[C@@H](CCCNC(=N)N)C(=O)N[C@@H](CCCCN)C(=O)N[C@@H](CCC(=O)O)C(=O)N[C@@H](CO)C(=O)N[C@@H](CCCCN)C(=O)N[C@@H](CCCCN)C(=O)N1CCC[C@H]1C(=O)N1CCC[C@H]1C(=O)N[C@@H](C)C(=O)N[C@@H](CCCCN)C(=O)N[C@@H](CC(C)C)C(=O)N[C@@H](CCC(N)=O)C(=O)N1CCC[C@H]1C(=O)N[C@@H](CCCNC(=N)N)C(=O)O)C(C)C
B3: H-Aib-S-S(O-octyl)-FLSPEHQRVQQRKES-K(hexadecanoyl)-KPPAKLQPR-OH (peptide)
peptide: H-[Aib]SS(Octyl)FLSPEHQRVQQRKESK(Palmitoyl)KPPAKLQPR-OH
SMILES: CCCCCCCCCCCCCCCC(=O)NCCCC[C@H](NC(=O)[C@H](CO)NC(=O)[C@H](CCC(=O)O)NC(=O)[C@H](CCCCN)NC(=O)[C@H](CCCNC(=N)N)NC(=O)[C@H](CCC(N)=O)NC(=O)[C@H](CCC(N)=O)NC(=O)[C@@H](NC(=O)[C@H](CCCNC(=N)N)NC(=O)[C@H](CCC(N)=O)NC(=O)[C@H](Cc1c[nH]cn1)NC(=O)[C@H](CCC(=O)O)NC(=O)[C@@H]1CCCN1C(=O)[C@H](CO)NC(=O)[C@H](CC(C)C)NC(=O)[C@H](Cc1ccccc1)NC(=O)[C@H](COCCCCCCCC)NC(=O)[C@H](CO)NC(=O)C(C)(C)N)C(C)C)C(=O)N[C@@H](CCCCN)C(=O)N1CCC[C@H]1C(=O)N1CCC[C@H]1C(=O)N[C@@H](C)C(=O)N[C@@H](CCCCN)C(=O)N[C@@H](CC(C)C)C(=O)N[C@@H](CCC(N)=O)C(=O)N1CCC[C@H]1C(=O)N[C@@H](CCCNC(=N)N)C(=O)O
B4: H-[cACC]-S(O-octanoyl)-FLSPEHQRVQQRKESKKPPAKLQPR-OH (peptide)
peptide: H-[Achc(cis-1,4)]S(Octanoyl)FLSPEHQRVQQRKESKKPPAKLQPR-OH
SMILES: CCCCCCCC(=O)OC[C@H](NC(=O)[C@H]1CC[C@@H](N)CC1)C(=O)N[C@@H](Cc1ccccc1)C(=O)N[C@@H](CC(C)C)C(=O)N[C@@H](CO)C(=O)N1CCC[C@H]1C(=O)N[C@@H](CCC(=O)O)C(=O)N[C@@H](Cc1c[nH]cn1)C(=O)N[C@@H](CCC(N)=O)C(=O)N[C@@H](CCCNC(=N)N)C(=O)N[C@H](C(=O)N[C@@H](CCC(N)=O)C(=O)N[C@@H](CCC(N)=O)C(=O)N[C@@H](CCCNC(=N)N)C(=O)N[C@@H](CCCCN)C(=O)N[C@@H](CCC(=O)O)C(=O)N[C@@H](CO)C(=O)N[C@@H](CCCCN)C(=O)N[C@@H](CCCCN)C(=O)N1CCC[C@H]1C(=O)N1CCC[C@H]1C(=O)N[C@@H](C)C(=O)N[C@@H](CCCCN)C(=O)N[C@@H](CC(C)C)C(=O)N[C@@H](CCC(N)=O)C(=O)N1CCC[C@H]1C(=O)N[C@@H](CCCNC(=N)N)C(=O)O)C(C)C
B5: H-Inp-S-S(O-octyl)-FLSPEHQRV-K(hexadecanoyl)-QRKESKKPPAKLQPR-OH (peptide)
peptide: H-[Inp]SS(Octyl)FLSPEHQRVK(Palmitoyl)QRKESKKPPAKLQPR-OH
SMILES: CCCCCCCCCCCCCCCC(=O)NCCCC[C@H](NC(=O)[C@@H](NC(=O)[C@H](CCCNC(=N)N)NC(=O)[C@H](CCC(N)=O)NC(=O)[C@H](Cc1c[nH]cn1)NC(=O)[C@H](CCC(=O)O)NC(=O)[C@@H]1CCCN1C(=O)[C@H](CO)NC(=O)[C@H](CC(C)C)NC(=O)[C@H](Cc1ccccc1)NC(=O)[C@H](COCCCCCCCC)NC(=O)[C@H](CO)NC(=O)C1CCNCC1)C(C)C)C(=O)N[C@@H](CCC(N)=O)C(=O)N[C@@H](CCCNC(=N)N)C(=O)N[C@@H](CCCCN)C(=O)N[C@@H](CCC(=O)O)C(=O)N[C@@H](CO)C(=O)N[C@@H](CCCCN)C(=O)N[C@@H](CCCCN)C(=O)N1CCC[C@H]1C(=O)N1CCC[C@H]1C(=O)N[C@@H](C)C(=O)N[C@@H](CCCCN)C(=O)N[C@@H](CC(C)C)C(=O)N[C@@H](CCC(N)=O)C(=O)N1CCC[C@H]1C(=O)N[C@@H](CCCNC(=N)N)C(=O)O
B6: H-[tACC]-S(O-octanoyl)-FLSPEHQRVQQRKESKKPPAKLQPR-OH (peptide)
peptide: H-[Achc(trans-4)]S(Octanoyl)FLSPEHQRVQQRKESKKPPAKLQPR-OH
SMILES: CCCCCCCC(=O)OC[C@H](NC(=O)[C@H]1CC[C@H](N)CC1)C(=O)N[C@@H](Cc1ccccc1)C(=O)N[C@@H](CC(C)C)C(=O)N[C@@H](CO)C(=O)N1CCC[C@H]1C(=O)N[C@@H](CCC(=O)O)C(=O)N[C@@H](Cc1c[nH]cn1)C(=O)N[C@@H](CCC(N)=O)C(=O)N[C@@H](CCCNC(=N)N)C(=O)N[C@H](C(=O)N[C@@H](CCC(N)=O)C(=O)N[C@@H](CCC(N)=O)C(=O)N[C@@H](CCCNC(=N)N)C(=O)N[C@@H](CCCCN)C(=O)N[C@@H](CCC(=O)O)C(=O)N[C@@H](CO)C(=O)N[C@@H](CCCCN)C(=O)N[C@@H](CCCCN)C(=O)N1CCC[C@H]1C(=O)N1CCC[C@H]1C(=O)N[C@@H](C)C(=O)N[C@@H](CCCCN)C(=O)N[C@@H](CC(C)C)C(=O)N[C@@H](CCC(N)=O)C(=O)N1CCC[C@H]1C(=O)N[C@@H](CCCNC(=N)N)C(=O)O)C(C)C
B7: H-Inp-S-S(O-octyl)-FLSPEHQRVQQRKES-K(hexadecanoyl)-KPPAKLQPR-OH (peptide)
peptide: H-[Inp]SS(Octyl)FLSPEHQRVQQRKESK(Palmitoyl)KPPAKLQPR-OH
SMILES: CCCCCCCCCCCCCCCC(=O)NCCCC[C@H](NC(=O)[C@H](CO)NC(=O)[C@H](CCC(=O)O)NC(=O)[C@H](CCCCN)NC(=O)[C@H](CCCNC(=N)N)NC(=O)[C@H](CCC(N)=O)NC(=O)[C@H](CCC(N)=O)NC(=O)[C@@H](NC(=O)[C@H](CCCNC(=N)N)NC(=O)[C@H](CCC(N)=O)NC(=O)[C@H](Cc1c[nH]cn1)NC(=O)[C@H](CCC(=O)O)NC(=O)[C@@H]1CCCN1C(=O)[C@H](CO)NC(=O)[C@H](CC(C)C)NC(=O)[C@H](Cc1ccccc1)NC(=O)[C@H](COCCCCCCCC)NC(=O)[C@H](CO)NC(=O)C1CCNCC1)C(C)C)C(=O)N[C@@H](CCCCN)C(=O)N1CCC[C@H]1C(=O)N1CCC[C@H]1C(=O)N[C@@H](C)C(=O)N[C@@H](CCCCN)C(=O)N[C@@H](CC(C)C)C(=O)N[C@@H](CCC(N)=O)C(=O)N1CCC[C@H]1C(=O)N[C@@H](CCCNC(=N)N)C(=O)O
B8: H-Aib-S-S(O-octyl)-FLSPEHQRVQQRKESKKPPAKLQPR-OH (peptide)
peptide: H-[Aib]SS(Octyl)FLSPEHQRVQQRKESKKPPAKLQPR-OH
SMILES: CCCCCCCCOC[C@H](NC(=O)[C@H](CO)NC(=O)C(C)(C)N)C(=O)N[C@@H](Cc1ccccc1)C(=O)N[C@@H](CC(C)C)C(=O)N[C@@H](CO)C(=O)N1CCC[C@H]1C(=O)N[C@@H](CCC(=O)O)C(=O)N[C@@H](Cc1c[nH]cn1)C(=O)N[C@@H](CCC(N)=O)C(=O)N[C@@H](CCCNC(=N)N)C(=O)N[C@H](C(=O)N[C@@H](CCC(N)=O)C(=O)N[C@@H](CCC(N)=O)C(=O)N[C@@H](CCCNC(=N)N)C(=O)N[C@@H](CCCCN)C(=O)N[C@@H](CCC(=O)O)C(=O)N[C@@H](CO)C(=O)N[C@@H](CCCCN)C(=O)N[C@@H](CCCCN)C(=O)N1CCC[C@H]1C(=O)N1CCC[C@H]1C(=O)N[C@@H](C)C(=O)N[C@@H](CCCCN)C(=O)N[C@@H](CC(C)C)C(=O)N[C@@H](CCC(N)=O)C(=O)N1CCC[C@H]1C(=O)N[C@@H](CCCNC(=N)N)C(=O)O)C(C)C
B9: H-Inp-S-S(O-octyl)-FLSPEHQRVQQRKESKKPPAKL-K(hexadecanoyl)-PR-OH (peptide)
peptide: H-[Inp]SS(Octyl)FLSPEHQRVQQRKESKKPPAKLK(Palmitoyl)PR-OH
SMILES: CCCCCCCCCCCCCCCC(=O)NCCCC[C@H](NC(=O)[C@H](CC(C)C)NC(=O)[C@H](CCCCN)NC(=O)[C@H](C)NC(=O)[C@@H]1CCCN1C(=O)[C@@H]1CCCN1C(=O)[C@H](CCCCN)NC(=O)[C@H](CCCCN)NC(=O)[C@H](CO)NC(=O)[C@H](CCC(=O)O)NC(=O)[C@H](CCCCN)NC(=O)[C@H](CCCNC(=N)N)NC(=O)[C@H](CCC(N)=O)NC(=O)[C@H](CCC(N)=O)NC(=O)[C@@H](NC(=O)[C@H](CCCNC(=N)N)NC(=O)[C@H](CCC(N)=O)NC(=O)[C@H](Cc1c[nH]cn1)NC(=O)[C@H](CCC(=O)O)NC(=O)[C@@H]1CCCN1C(=O)[C@H](CO)NC(=O)[C@H](CC(C)C)NC(=O)[C@H](Cc1ccccc1)NC(=O)[C@H](COCCCCCCCC)NC(=O)[C@H](CO)NC(=O)C1CCNCC1)C(C)C)C(=O)N1CCC[C@H]1C(=O)N[C@@H](CCCNC(=N)N)C(=O)O
B10: H-[DPro]-S-S(O-octyl)-FLSPEHQRVQQRKES-K(hexadecanoyl)-KPPAKLQPR-OH (peptide)
peptide: XSSFLSPEHQRVQQRKESKKPPAKLQPR
modifications: DPro at position 1; Ser(O-octyl) at position 3; K(hexadecanoyl) at position 19; C-terminal -OH

Target: human growth hormone secretagogue receptor type 1a (human, UniProt Q92847 1-366)
Sequence (Q92847 whole entry): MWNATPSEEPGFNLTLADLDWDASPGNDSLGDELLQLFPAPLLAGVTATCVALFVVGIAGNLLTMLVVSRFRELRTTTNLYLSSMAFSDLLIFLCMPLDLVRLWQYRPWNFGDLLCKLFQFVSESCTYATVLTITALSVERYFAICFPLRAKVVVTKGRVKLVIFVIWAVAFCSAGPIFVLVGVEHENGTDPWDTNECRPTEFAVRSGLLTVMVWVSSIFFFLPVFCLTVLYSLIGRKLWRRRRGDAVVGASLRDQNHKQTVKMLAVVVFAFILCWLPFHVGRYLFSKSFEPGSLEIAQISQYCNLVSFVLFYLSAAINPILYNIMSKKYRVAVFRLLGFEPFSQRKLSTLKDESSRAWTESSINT
Assay: cell-based or functional assay

Row | Binder | EC50 (nM); Ca2+ induction in HEK293 cells stably expressing the human ghrelin receptor [nM]
1 | B1 | 2.88
2 | B2 | 1.56
3 | B3 | 2.9
4 | B4 | 0.379
5 | B5 | 2.55
6 | B6 | 1.89
7 | B7 | 2.52
8 | XSSFLSPEHQRVQQRKESKKPPAKLQPR (DPro at position 1; Ser(O-octyl) at position 3; C-terminal -OH) [H-[DPro]-S-S(O-octyl)-FLSPEHQRVQQRKESKKPPAKLQPR-OH] | 0.77
9 | B8 | 0.46
10 | H-PSS(Octyl)FLSPEHQRVQQRKESKKPPAKLQPR-OH [H-PS-S(O-octyl)-FLSPEHQRVQQRKESKKPPAKLQPR-OH] | 0.579
11 | B9 | 1.18
12 | B10 | 4.63
